Results published in US20190169306A1 (UNIVERSITY OF SOUTHAMPTON, published 2019).

Biological target: T1, human CD27 (human, UniProt P26842 20-260)
T1 sequence (looked up): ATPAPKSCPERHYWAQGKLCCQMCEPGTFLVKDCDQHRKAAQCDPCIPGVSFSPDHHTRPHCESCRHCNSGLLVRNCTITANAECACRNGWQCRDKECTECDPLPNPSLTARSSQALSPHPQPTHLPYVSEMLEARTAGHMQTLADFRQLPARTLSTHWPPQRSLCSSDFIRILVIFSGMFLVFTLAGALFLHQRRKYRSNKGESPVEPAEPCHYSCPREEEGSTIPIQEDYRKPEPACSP
Experiment: cell-based or functional assay

level of CD14 on monocytes in human PBMC cultures after 48 hours (flow cytometry): 2 fold
monocyte number in human PBMC cultures after 48 hours with 5 µg/mL mAb (flow cytometry): 3 fold
B1: varlilumab (anti-human CD27 mAb) (antibody, V domains shown)
VH: QVQLVESGGGVVQPGRSLRLSCAASGFTFSSYDMHWVRQAPGKGLEWVAVIWYDGSNKYYADSVKGRFTISRDNSKNTLYLQMNSLRAEDTAVYYCARGSGNWGFFDYWGQGTLVTVSS
VL: DIQMTQSPSSLSASVGDRVTITCRASQGISRWLAWYQQKPEKAPKSLIYAASSLQSGVPSRFSGSGSGTDFTLTISSLQPEDFATYYCQQYNTYPRTFGQGTKVEIK
